Usually stoichiometry N stands for a count of units in the complex or per binding partner.

The assay deals with recombinant Shiga toxin-2a B subunit (rStx2aB), C-terminal 6xHis tag (E. coli O157:H7 strain EDL933). Description: SEC; rStx2aB on Superdex-75 16/60 in PBS, 1 mL/min. (In general: SEC sorts molecules by how far they enter the pores of the column.)

As to “recombinant Shiga toxin-2a B subunit (rStx2aB), C-terminal 6xHis tag (domain or fragment)”, the stoichiometry N turned out to be 5.
